According to article PMC5028025:

Columns and labels:
citrate synthase [1] = biological target: citrate synthase (UniProt P00889)
[2] = biological target: luciferase [luciferase: P08659]
malate dehydrogenase = malate dehydrogenase (UniProt P00346)
citrate synthase [3] = biological target: citrate synthase (UniProt P00889); remark: listed apart in the source
[4] = biological target: Synechococcus sp. phage S-ShM2 18 kDa small heat shock protein (HspSP-ShM2) (cyanophage S-ShM2 (Synechococcus sp. phage)); assay: SEC; Superdex 200 Increase 10/300 GL, TEN buffer (50 mM Tris-HCl pH 8.0, 0.1 mM EDTA, 150 mM NaCl) without detergent, room temperature, 0.5 ml/min; HspSP-ShM2 alone at 30 and 60 uM (the ~200 kDa species only at 60 uM); masses from a standard curve

Sequence of UniProt P00889 (P00889 28-464): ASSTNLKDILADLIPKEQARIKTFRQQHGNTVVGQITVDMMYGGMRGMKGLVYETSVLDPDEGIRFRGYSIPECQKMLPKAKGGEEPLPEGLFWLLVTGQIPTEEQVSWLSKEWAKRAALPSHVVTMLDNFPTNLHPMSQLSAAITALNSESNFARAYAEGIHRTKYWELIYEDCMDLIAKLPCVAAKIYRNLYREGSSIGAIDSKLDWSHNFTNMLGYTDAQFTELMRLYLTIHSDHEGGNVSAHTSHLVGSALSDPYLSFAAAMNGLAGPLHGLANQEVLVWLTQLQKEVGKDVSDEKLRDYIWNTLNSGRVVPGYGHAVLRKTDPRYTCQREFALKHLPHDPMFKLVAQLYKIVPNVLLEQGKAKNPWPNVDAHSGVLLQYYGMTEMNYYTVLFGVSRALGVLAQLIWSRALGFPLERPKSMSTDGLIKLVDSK
Sequence of UniProt P00346 (P00346 25-338): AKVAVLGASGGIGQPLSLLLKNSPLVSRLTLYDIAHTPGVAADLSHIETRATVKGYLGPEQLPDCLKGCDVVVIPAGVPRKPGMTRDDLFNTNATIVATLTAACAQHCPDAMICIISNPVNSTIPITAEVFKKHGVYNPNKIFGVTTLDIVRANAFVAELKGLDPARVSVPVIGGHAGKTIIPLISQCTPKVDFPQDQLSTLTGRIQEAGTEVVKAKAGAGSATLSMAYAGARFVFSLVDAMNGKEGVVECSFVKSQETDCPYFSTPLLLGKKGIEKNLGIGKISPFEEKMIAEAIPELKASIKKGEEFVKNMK

Synechococcus sp. phage S-ShM2 18 kDa small heat shock protein (HspSP-ShM2) (natural protein)
percent of heat-induced aggregation of CS (light scattering at 320 nm, 90 min at 45°C, CS alone = 100%) at 5:1 and 10:1 HspSP-ShM2:CS (41.6 and 8.17%) (citrate synthase [1]): 41.6% | percent of heat-induced aggregation of Luc (light scattering at 320 nm, 30 min at 42°C, Luc alone = 100%) at 6:1 and 12:1 HspSP-ShM2:Luc (45.8 and 6.4%) [2]: 45.8% | percent of heat-induced aggregation of MDH (light scattering at 320 nm, 90 min at 45°C, MDH alone = 100%) at 6:1 and 12:1 HspSP-ShM2:MDH (26.9 and 6.5%) (malate dehydrogenase): 26.9% | decrease of the ability to prevent heat-induced aggregation of CS in the presence of 0.23 mM Triton X-100, at 5:1 and 10:1 HspSP-ShM2:CS (20% and 12%) (citrate synthase [3]): 20% | stoichiometry N [4]: 12
